The results in this text go back to paper doi:10.1101/2024.07.08.602401 (bioRxiv, 2024).

The target of assay [1] is HLA-E-VL9 complex (Homo sapiens, HLA-E*01:03, strain). Kind of assay: BLI.
Assay [2] deals with HLA-E-… single chain trimer on transfected 293T cells (Homo sapiens HLA-E*01:03 assumed; …). Kind of assay: flow cytometry on cells.
The target in assay [3] is HLA-E-[…] single chain trimer on transfected 293T cells (Homo sapiens HLA-E*01:03 assumed; …). Kind of assay: flow cytometry on cells.

B1: 3H4v31 IgG1 (antibody, V domains shown)
VH: EVQLQESGPELVKPGASVKIPCKASGYTFTDYNMDWVKQSHGKSLEWIGDINPNNGGTIYNQKFKGKATLTVDKSSSTAYMELRSLTSEDTAVYYCARPDSAQYRWNWYFDVWGTGTTVTVSS
VL: DIVITQSPSSMYASLGERVTITCKASQDINSYLSWFQQKPGKSPKTLIYRANRLVDGVPSRFSGSGSGQDYSLTISSLEYEDMGIYYCLQYDEFPLTFGAGTKLELK
Molecule B1 gave a Kd in assay [1] of 11.5 nM.

B2: wildtype 3H4 IgG1 (antibody, V domains shown)
VH: EVQLQESGPELVKPGASVKIPCKASGYTFTDYNMDWVKQSHGKSLEWIGDINPNNGGTIYNQKFKGKATLTVDKSSSTAYMELRSLTSEDTAVYYCARPDYYGSSYGWYFDVWGTGTTVTVSS
VL: DIVITQSPSSMYASLGERVTITCKASQDINSYLSWFQQKPGKSPKTLIYRANRLVDGVPSRFSGSGSGQDYSLTISSLEYEDMGIYYCLQYDEFPLTFGAGTKLELK
In the case of B2, the binding result in assay [2] and in assay [3] was “binds” throughout.
